Measurements from publication PMC10703496.

Legend:
[1] = target: 6×His-tagged receptor-binding domain (RBD) of SARS-CoV-2 spike, Wuhan (SARS-CoV-2) (UniProt P0DTC2); assay: SPR
[2] = target: spike protein of live Wuhan SARS-CoV-2 (SARS-CoV-2) (UniProt P0DTC2)
[3] = target: dimeric ACE2-albumin fusion: truncated human ACE2 (residues 18–740) fused to engineered human albumi (human) (UniProt Q9BYF1); assay: SEC
[4] = target: soluble His-tagged human neonatal Fc receptor (human) (UniProt P55899)
[5] = target: dimeric ACE2-albumin fusion: truncated human ACE2 (residues 18–740) fused to full-length wild-type human albumin (human) (UniProt Q9BYF1); assay: SEC
[6] = target: ACE2(18–740)-WT: truncated dimeric human ACE2 (residues 18–740) fused to the N-terminal end of full- (human) (UniProt Q9BYF1); assay: SPR; pH 5.5
[7] = target: ACE2(18–740)-WT: truncated dimeric human ACE2 (residues 18–740) fused to the N-terminal end of full- (human) (UniProt Q9BYF1); assay: SPR

soluble His-tagged human neonatal Fc receptor (human FcRn-His), sequence (P55899 24-297): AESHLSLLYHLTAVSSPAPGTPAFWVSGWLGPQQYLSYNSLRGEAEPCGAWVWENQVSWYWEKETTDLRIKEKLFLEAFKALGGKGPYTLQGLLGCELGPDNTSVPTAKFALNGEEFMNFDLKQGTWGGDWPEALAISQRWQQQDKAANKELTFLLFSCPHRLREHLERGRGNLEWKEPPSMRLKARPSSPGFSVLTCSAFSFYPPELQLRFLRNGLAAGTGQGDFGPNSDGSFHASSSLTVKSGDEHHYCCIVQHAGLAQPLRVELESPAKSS
soluble His-tagged human neonatal Fc receptor (human FcRn-His), sequence (P61769 21-119): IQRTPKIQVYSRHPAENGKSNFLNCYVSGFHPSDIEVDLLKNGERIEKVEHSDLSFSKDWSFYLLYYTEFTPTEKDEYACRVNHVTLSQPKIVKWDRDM
soluble His-tagged human neonatal Fc receptor (human), sequence (P55899 24-297, chain 1 of 2): as the sequence (P55899 24-297) above
soluble His-tagged human neonatal Fc receptor (human), sequence (P61769 21-119, chain 2 of 2, further chain): as the sequence (P61769 21-119) above

Substance | Kd [1] [nM] | koff [1] [s⁻¹] | kon [1] [M⁻¹ s⁻¹] | further results
ACE2(18–615)-QMP: monomeric ACE2 peptidase domain (residues 18–615) fused to the N-terminal end of QMP human albumin (from UniProt Q9BYF1-1;P02768) | 108 | 0.026 | 240000 | –
ACE2(18–615)-WT: monomeric ACE2 peptidase domain (residues 18–615) fused to the N-terminal end of fu (from UniProt Q9BYF1-1;P02768) | 327 | 0.0124 | 38000 | –
ACE2(18–740)-WT: truncated dimeric human ACE2 (residues 18–740) fused to the N-terminal end of full- (from UniProt Q9BYF1-1;P02768) | 0.9 | 0.00015 | 166000 | Table S3: IC50 of live virus neutralization (Wuhan SARS-CoV-2 on Vero E6 cells) [2]: 293 nM
dimeric ACE2-albumin fusion: truncated human ACE2 (residues 18–740) fused to engineered human albumi (from UniProt Q9BYF1 18-740) | – | – | – | stoichiometry N [3]: 2
dimeric ACE2-albumin fusion: truncated human ACE2 (residues 18–740) fused to full-length wild-type human albumin (from UniProt Q9BYF1;P02768) | – | – | – | plasma half-life after IV injection in human FcRn Tg32 mice [4]: 26.4 h; stoichiometry N [5]: 2
soluble His-tagged human neonatal Fc receptor (human FcRn-His) (from UniProt P55899 24-297; P61769 21-119) | – | – | – | Kd [6]: 102 nM; koff [6]: 0.0061 s⁻¹; kon [7]: 60000 M⁻¹ s⁻¹
